Reference: article PMC9873567 (2022)
Where two headings read alike, the source gives them in different places. Values belong to the molecule of their own block, whether it stands above or below them.

Key:
ERECTA = ERECTA (UniProt Q42371); experiment: anti-MYC co-IP, anti-HA blot
GST-PUB31 [1] = target: T1, GST-PUB31 (Arabidopsis thaliana, UniProt Q9FHN9 1-444); experiment: BLI
T1 chain: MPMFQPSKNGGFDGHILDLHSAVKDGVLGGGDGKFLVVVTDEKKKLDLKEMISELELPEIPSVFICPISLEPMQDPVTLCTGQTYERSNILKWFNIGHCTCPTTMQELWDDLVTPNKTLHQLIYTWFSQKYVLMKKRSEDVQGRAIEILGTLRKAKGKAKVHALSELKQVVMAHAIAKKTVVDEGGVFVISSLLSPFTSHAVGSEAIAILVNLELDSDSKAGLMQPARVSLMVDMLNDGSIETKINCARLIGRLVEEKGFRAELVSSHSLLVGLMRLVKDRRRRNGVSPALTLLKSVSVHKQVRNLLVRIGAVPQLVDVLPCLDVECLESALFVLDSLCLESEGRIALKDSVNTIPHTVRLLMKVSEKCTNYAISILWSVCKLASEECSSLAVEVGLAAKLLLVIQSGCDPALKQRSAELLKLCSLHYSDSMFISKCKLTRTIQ

GST-PUB30 [2] = target: T2, GST-PUB30 (Arabidopsis thaliana, UniProt Q058P4 1-448); experiment: BLI
T2 chain: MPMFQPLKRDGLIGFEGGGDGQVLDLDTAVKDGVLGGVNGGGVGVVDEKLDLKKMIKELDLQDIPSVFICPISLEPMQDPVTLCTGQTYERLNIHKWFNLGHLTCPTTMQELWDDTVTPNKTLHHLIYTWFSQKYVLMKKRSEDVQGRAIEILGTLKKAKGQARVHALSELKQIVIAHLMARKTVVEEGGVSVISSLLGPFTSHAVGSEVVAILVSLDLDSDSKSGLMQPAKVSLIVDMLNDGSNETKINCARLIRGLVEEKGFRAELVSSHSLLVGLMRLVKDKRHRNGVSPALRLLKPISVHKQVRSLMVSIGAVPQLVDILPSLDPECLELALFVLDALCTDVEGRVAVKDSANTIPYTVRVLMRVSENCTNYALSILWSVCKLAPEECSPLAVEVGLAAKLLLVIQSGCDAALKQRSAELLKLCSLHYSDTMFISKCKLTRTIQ

GST-PUB31 [3] = target: T1, GST-PUB31; experiment: BLI
GST-PUB30 [4] = target: T2, GST-PUB30; experiment: BLI

binding against the reference (ERECTA; reference: wild type PUB30-MYC, sites T155): weaker
Molecule: PUB30 (from UniProt Q058P4) PUB30 T155A-MYC

binding against the reference (ERECTA; reference: wild type PUB31-MYC, sites T151): weaker
Molecule: PUB31 (from UniProt Q9FHN9) PUB31 T151A-MYC

Kd (GST-PUB31 [1]): 11 µM
Kd (GST-PUB30 [2]): 15 µM
B1: MBP-ERECTA_CD (domain or fragment)
chain: CRPHNPPPFLDGSLDKPVTYSTPKLVILHMNMALHVYEDIMRMTENLSEKYIIGHGASSTVYKCVLKNCKPVAIKRLYSHNPQSMKQFETELEMLSSIKHRNLVSLQAYSLSHLGSLLFYDYLENGSLWDLLHGPTKKKTLDWDTRLKIAYGAAQGLAYLHHDCSPRIIHRDVKSSNILLDKDLEARLTDFGIAKSLCVSKSHTSTYVMGTIGYIDPEYARTSRLTEKSDVYSYGIVLLELLTRRKAVDDESNLHHLIMSKTGNNEVMEMADPDITSTCKDLGVVKKVFQLALLCTKRQPNDRPTMHQVTRVLGSFMLSEQPPAATDTSATLAGSCYVDEYANLKTPHSVNCSSMSASDAQLFLRFGQVISQNSE

Kd (GST-PUB31 [3]): 2 µM
Kd (GST-PUB30 [4]): 2.4 µM
B2: MBP-BAK1_CD (domain or fragment)
chain: AWWRRKKPQDHFFDVPAEEDPEVHLGQLKRFSLRELQVASDNFSNKNILGRGGFGKVYKGRLADGTLVAVKRLKEERTQGGELQFQTEVEMISMAVHRNLLRLRGFCMTPTERLLVYPYMANGSVASCLRERPESQPPLDWPKRQRIALGSARGLAYLHDHCDPKIIHRDVKAANILLDEEFEAVVGDFGLAKLMDYKDTHVTTAVRGTIGHIAPEYLSTGKSSEKTDVFGYGVMLLELITGQRAFDLARLANDDDVMLLDWVKGLLKEKKLEALVDVDLQGNYKDEEVEQLIQVALLCTQSSPMERPKMSEVVRMLEGDGLAERWEEWQKEEMFRQDFNYPTHHPAVSGWIIGDSTSQIENEYPSGPR
